Laboratory results reported in patent US20070098681A1 (published 2007).

Assays:
[1] = target: DR5-IgG (human); experiment: BIAcore SPR; KD relative to Flag.Apo2L.WT
[2] = target: T1, DR4-IgG (human); experiment: BIAcore SPR; KD relative to Flag.Apo2L.WT
T1 construct: Mature DR4 ECD (amino acids 1-218); Made in human 293 cells; also called DR4 receptor immunoadhesin

[3] = target: T1, DR4-IgG; experiment: AlphaQuest displacement of biotinylated Apo2L/TRAIL from receptor-IgG; ratio to Flag-Apo2L.WT
Text: (§1) This assay produces a signal when a “donor” and “acceptor” bead are brought in close proximity facilitating singlet oxygen-mediated, fluorescence resonance energy transfer. […] The acceptor bead is coated with Staphylococcal Protein A and is used to capture the receptor-IgG protein.

[4] = target: T2, DcR2-IgG (UniProt Q9UBN6 56-211, limits assumed); experiment: as above
T2 construct: not shown: IgG portion, not described
T2 sequence (looked up): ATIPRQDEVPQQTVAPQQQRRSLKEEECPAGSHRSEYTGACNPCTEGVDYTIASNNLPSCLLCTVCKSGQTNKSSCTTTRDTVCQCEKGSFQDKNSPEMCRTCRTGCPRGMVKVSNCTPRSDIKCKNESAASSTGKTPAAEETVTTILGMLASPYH
Text: as §1

[5] = target: T3, DcR1 receptor-IgG (UniProt O14798 26-236, limits assumed); experiment: as above
T3 construct: Receptor-IgG protein captured on Protein A acceptor beads; construct not described; not shown: IgG portion, not described
T3 sequence (looked up): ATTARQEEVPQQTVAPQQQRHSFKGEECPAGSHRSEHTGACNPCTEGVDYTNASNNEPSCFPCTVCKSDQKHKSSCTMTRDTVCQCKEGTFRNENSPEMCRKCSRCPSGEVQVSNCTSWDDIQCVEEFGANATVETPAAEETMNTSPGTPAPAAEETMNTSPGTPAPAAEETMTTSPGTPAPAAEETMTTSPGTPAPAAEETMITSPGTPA
Text: as §1

[6] = target: DR5-IgG (human); experiment: BIAcore SPR, receptor-IgG immobilised; ratio to wild-type Apo2L/TRAIL(114-281)
Description: (§2) Briefly, dissociation constants (Kd) for binding of Apo-2L variants (see Tables II and III) to immobilized receptor immunoadhesins were determined from surface plasmon resonance (SPR) measurements on a Pharmacia BIAcore 3000. DR5-IgG (also referred to as Apo-2-IgG) and DcR2-IgG receptor immunoadhesins were prepared as described in WO98/51793 published November 19, 1998 and WO99/10484 published Mar. 9, 1999, respectively. DR4-IgG was prepared as follows. A mature DR4 ECD sequence (amino acids 1-218; Pan et al., supra) was cloned into a pCMV-1 Flag vector (Kodak) downstream of the Flag signal sequence and fused to the CH1, hinge and Fc region of human immunoglobulin G₁ heavy chain as described previously [Aruffo et al., Cell, 61:1303-1313 (1990)]. The immunoadhesin was expressed by transient transfection into human 293 cells and purified from the cell supernatants by protein A affinity chromatography, as described by Ashkenazi et al., Proc. Natl. Acad. Sci., 88:10535-10539 (1991)]. The receptor immunoadhesin proteins were coupled to the sensor chip surface at a level of 300-500 resonance units using amine coupling chemistry (Pharmacia Biosensor). Sensorgrams were recorded for Apo-2L binding at concentrations ranging from 15.6 nM to 500 nM in 2-fold increments. The kinetics constants were determined by non-linear regression analysis and used to calculate the binding constants.

[7] = target: T1, DR4-IgG; experiment: as above
Description: as §2

[8] = target: DR5-IgG (human); experiment: AlphaQuest displacement of biotinylated Apo2L/TRAIL from receptor-IgG; ratio to Flag-Apo2L.WT
Text: as §1

[9] = target: T1, DR4-IgG; experiment: BIAcore SPR, receptor-IgG immobilised
Description: as §2
(§3) These variants were expressed and purified, the purified proteins were assayed for receptor-binding by BIAcore® and bioactivity on SK-MES lung carcinoma cells, as previously described (see, e.g. Hymowitz et al. (2000) Biochemistry 39, 633-640).

[10] = target: T4, DR5-IgG (human); experiment: BIAcore SPR, receptor-IgG immobilised
T4 construct: also called Apo-2-IgG
Description: as §2, §3

[11] = target: T4, DR5-IgG; experiment: BIAcore SPR, receptor-IgG immobilised; ratio to wild-type Apo2L/TRAIL(114-281)
Description: as §2

[12] = target: DR5-IgG (human); experiment: BIAcore SPR, receptor-IgG immobilised
Description: as §2, §3

[13] = target: T4, DR5-IgG; experiment: BIAcore SPR; KD relative to Flag.Apo2L.WT
[14] = target: T4, DR5-IgG; experiment: AlphaQuest displacement of biotinylated Apo2L/TRAIL from receptor-IgG; ratio to Flag-Apo2L.WT
Text: as §1

B1: Flag-Apo2L.DR4-8 (ligand)
chain: VRERGPQRVAAHITGTRGRSNTLSSPNSKNEKALGRKINSWESSRSGHSFLSNLHLRNGELVIHEKGFYYIYSQTAFRFSEEIKEVTRNDKQMVQYIYKWTDYPDPILLMKSARNSCWSKDAEYGLYSIYQGGIFELKENDRIFVSVTNEHLIDMDHEASFFGAFLVG
[1]
  KD ratio (mut/wt): 1100 ratio (mut/wt)
[2]
  KD ratio (mut/wt): 0.2 ratio (mut/wt)
[3]
  IC50 ratio (mutant/wt): 1 ratio (mutant/wt)
[4]
  IC50 ratio (mutant/wt): 15 ratio (mutant/wt)
[5]
  IC50 ratio (mutant/wt): 5.5 ratio (mutant/wt)

B2: Apo2L/TRAIL(114-281) mutant DR5-4 (ligand)
chain: VRERGPQRVAAHITGTRGRSNTLSSPNSKNEKALGRKINSWESSRSGHSFLSNLHLRNGELVIHEKGFYYIYSQTAFRFREEIKENTKNDKQMVQYIYKYTSYPDPILLMKSARNSCWSKDAEYGLYSIYQGGIFELKENDRIFVSVTNEQLLDMNHEASFFGAFLVG
[6]
  KD ratio (mutant/wt): 1.3 ratio (mutant/wt)
[7]
  KD ratio (mutant/wt): 3.1 ratio (mutant/wt)

B3: Flag-Apo2L.DR5-2 (ligand)
chain: VRERGPQRVAAHITGTRGRSNTLSSPNSKNEKALGRKINSWESSRSGHSFLSNLHLRNGELVIHEKGFYYIYSQTAFKFKEEIKENTKNDKQMVQYIYKYTSYPDPILLMKSARNSCWSKDAEYGLYSIYQGGIFELKENDRIFVSVTNEHLIDMDHEASFFGAFLVG
[1]
  KD ratio (mut/wt): 1.9 ratio (mut/wt)
[2]
  KD ratio (mut/wt): 11 ratio (mut/wt)
[8]
  IC50 ratio (mutant/wt): 2.8 ratio (mutant/wt)
[4]
  IC50 ratio (mutant/wt): 5 ratio (mutant/wt)

B4: Apo2L/TRAIL(114-281) mutant DR5-5 (ligand)
chain: VRERGPQRVAAHITGTRGRSNTLSSPNSKNEKALGRKINSWESSRSGHSFLSNLHLRNGELVIHEKGFYYIYSQTSFRFTEEIKENTKNDKQMVQYIYKYTSYPDPILLMKSARNSCWSKDAEYGLYSIYQGGIFELKENDRIFVSVTNEGLLDMNHEASFFGAFLVG
[6]
  KD ratio (mutant/wt): 2.5 ratio (mutant/wt)
[7]
  KD ratio (mutant/wt): 12.4 ratio (mutant/wt)

B5: Flag-Apo2L.DR5-21 (ligand)
chain: VRERGPQRVAAHITGTRGRSNTLSSPNSKNEKALGRKINSWESSRSGHSFLSNLHLRNGELVIHEKGFYYIYSQTAFKFKEEIKENTKNDKQMVQYIYKYTSYPDPILLMKSARNSCWSKDAEYGLYSIYQGGIFELKENDRIFVSVTNEDLLNMEHEASFFGAFLVG
[4]
  IC50 ratio (mutant/wt): 9.4 ratio (mutant/wt)

B6: Flag-Apo2L.DR5-1 (ligand)
chain: VRERGPQRVAAHITGTRGRSNTLSSPNSKNEKALGRKINSWESSRSGHSFLSNLHLRNGELVIHEKGFYYIYSQTAFKFKEEIKENTKNDKQMVQYIYKYTSYPDPILLMKSARNSCWSKDAEYGLYSIYQGGIFELKENDRIFVSVTNEALIDMDHEASFFGAFLVG
[1]
  KD ratio (mut/wt): 2.2 ratio (mut/wt)
[2]
  KD ratio (mut/wt): 11 ratio (mut/wt)
[8]
  IC50 ratio (mutant/wt): 2.4 ratio (mutant/wt)
[4]
  IC50 ratio (mutant/wt): 32 ratio (mutant/wt)

B7: Apo2L/TRAIL(114-281) mutant DR5-11 (ligand)
chain: VRERGPQRVAAHITGTRGRSNTLSSPNSKNEKALGRKINSWESSRSGHSFLSNLHLRNGELVIHEKGFYYIYSQTAFRFKEEIKENTKNDKQMVQYIYKYTSYPDPILLMKSARNSCWSKDAEYGLYSIYQGGIFELKENDRIFVSVTNEGLVDMSHEASFFGAFLVG
[6]
  KD ratio (mutant/wt): 2.2 ratio (mutant/wt)
[7]
  KD ratio (mutant/wt): 5 ratio (mutant/wt)

B8: Flag-Apo2L.DR4-9 (ligand)
chain: VRERGPQRVAAHITGTRGRSNTLSSPNSKNEKALGRKINSWESSRSGHSFLSNLHLRNGELVIHEKGFYYIYSQTAFRFSEEIKERTRNDKQMVQYIYKWTDYPDPILLMKSARNSCWSKDAEYGLYSIYQGGIFELKENDRIFVSVTNEHLIDMDHEASFFGAFLVG
[1]
  KD ratio (mut/wt): 1200 ratio (mut/wt)
[2]
  KD ratio (mut/wt): 4.3 ratio (mut/wt)
[3]
  IC50 ratio (mutant/wt): 1.1 ratio (mutant/wt)
[4]
  IC50 ratio (mutant/wt): 18 ratio (mutant/wt)
[5]
  IC50 ratio (mutant/wt): 4 ratio (mutant/wt)

B9: Apo2L.DR5-8 (ligand)
chain: VRERGPQRVAAHITGTRGRSNTLSSPNSKNEKALGRKINSWESSRSGHSFLSNLHLRNGELVIHEKGFYYIYSQTQFKFREEIKENTKNDKQMVQYIYKYTSYPDPILLMKSARNSCWSKDAEYGLYSIYQGGIFELKENDRIFVSVTNERLLQMDHEASFFGAFLVG
notes: also called Apo2L/TRAIL.DR5-8
[9]
  DR4-binding (ratio relative to wild-type Apo2L): > 25 ratio relative to wild-type Apo2L
[10]
  DR5-binding (ratio relative to wild-type Apo2L): 0.6 ratio relative to wild-type Apo2L

B10: Apo2L/TRAIL(114-281) mutant DR5-23 (ligand)
chain: VRERGPQRVAAHITGTRGRSNTLSSPNSKNEKALGRKINSWESSRSGHSFLSNLHLRNGELVIHEKGFYYIYSQTAFKFREEIKENTKNDKQMVQYIYKYTSYPDPILLMKSARNSCWSKDAEYGLYSIYQGGIFELKENDRIFVSVTNESLLDMEHEASFFGAFLVG
notes: Untagged, from pAPOK5.0, purified from E. coli
[7]
  KD ratio (mutant/wt): 105 ratio (mutant/wt)
[11]
  KD ratio (mutant/wt): 2.4 ratio (mutant/wt)

B11: Apo2L.DR5-8C (ligand)
chain: VRERGPQRVAAHITGTRGRSNTLSSPNSKNEKALGRKINSWESSRSGHSFLSNLHLRNGELVIHEKGFYYIYSQTQFKFREEIKENTKNDKQMVQYIYKYTSYPDPILLMKSARNSCWSKDAEYGLYSIYQGGIFELKENDRIFVSVTNEHLLDMDHEASFFGAFLVG
[12]
  DR5-binding (ratio relative to wild-type Apo2L): 0.6 ratio relative to wild-type Apo2L
[9]
  DR4-binding (ratio relative to wild-type Apo2L): 5.5 ratio relative to wild-type Apo2L

B12: Apo2L.DR5-8B (ligand)
chain: VRERGPQRVAAHITGTRGRSNTLSSPNSKNEKALGRKINSWESSRSGHSFLSNLHLRNGELVIHEKGFYYIYSQTQFKFREEIKENTKNDKQMVQYIYKYTSYPDPILLMKSARNSCWSKDAEYGLYSIYQGGIFELKENDRIFVSVTNEHLIDMDHEASFFGAFLVG
[12]
  DR5-binding (ratio relative to wild-type Apo2L): 0.6 ratio relative to wild-type Apo2L
[9]
  DR4-binding (ratio relative to wild-type Apo2L): 2.5 ratio relative to wild-type Apo2L

B13: Flag-Apo2L.DR5-8 (ligand, not shown: small tags and cut ends)
chain: VRERGPQRVAAHITGTRGRSNTLSSPNSKNEKALGRKINSWESSRSGHSFLSNLHLRNGELVIHEKGFYYIYSQTQFKFREEIKENTKNDKQMVQYIYKYTSYPDPILLMKSARNSCWSKDAEYGLYSIYQGGIFELKENDRIFVSVTNERLLQMDHEASFFGAFLVG
modifications: N-terminal Flag epitope tag (pFLAG-MAC) is not written because its letters are not given
[13]
  KD ratio (mut/wt): 0.8 ratio (mut/wt)
[14]
  IC50 ratio (mutant/wt): 0.7 ratio (mutant/wt)
